Laboratory results published in the DeepSol protein solubility set.

Assay: soluble on expression in E. coli; label from the status in PepcDB or PDB records

Soluble on expression in E. coli, not soluble:
MGSDKIHHHHHHMLEATYHSLEDLAEAIGVALSAPITIEDRNHRLLAYSTHTADTDPARIATIIGRRVPESVIDQLWKDEVIQNLAAQDEPLIISARTGVGLNDRVAIAIKQDTEILGYIWSIARSTPFSETELSDFKKGALLAQRQLLAIDMQKKRQEEKTEQFFFELLHEDMPESEILKTFSKLHVAPPGISRLMVIRFSEAITPRLADRLRYLLTIQQTVRPLLYAYDETDFILWISTNDQDAHHERLQFDAFIQSFRQMLAERFNYTNFISASSEVFTGVQSIPERYEETGIVLRLKDAFPFELSTVTRYERLGLFQLLPIFSERLRRRTVRLEEIERLRSYDEKHAASLCETLEWFLHYDGNVKQVASHLHVHPNTILYRMRRIEEEAGIRMESLPERALLYLYLKADRYPL
MGSDKIHHHHHHMLEEGEHVLVAVSGGIDSMTLLYVLRKFSPLLKIKITAAHLDHRIRESSRRDREFVERICRQWNIPVETSEVDVPSLWKDSGKTLEEIAREVRYDFLKRTAKKVGASKIALAHHKNDLLETVVHRLIRGTGPLGLACISPKREEFIRPFLVFKRSEIEEYARKNNVPYVVDETNYNVKYTRNFIRHRIVPLMKELNPTVEDAVYRLVSVTHLLRNFVERTVQDFVERNVYFYKDYAVFVEPEDLFLFLEVTRWVLKEMYGRVPEYEKLIGTLKSKRVELWSGIFVERSFGYVAVGKTVFKKKYRVEVKGDMLEMEGFKIRVVNNRNDMKFWVRNRKEGDRIIVNGRERKLKDVFIEKKVPTFYRDRVPLLVDEEDRVLWVPGIARSDFLPEDVVVELLEYPVGYVKGGTYFEQV
MGSDKIHHHHHHMLFSVVDDRSGVAYQEYHCVYGEDAETALRFLFNSMAPKADPSFPFQGRPKLIYLDNGPVAKRRVFQSVMRALGIEWQTHIPASKDGTRTTARSKGKVERPFRTVKEAHETLYHFHKPETEAQANEWLLRYLVRTYNQQTHRAEPLSRIEDWITHVPTEGIREMCSWDQFCRFAREPERRKVGPDARITTDGTAYELEPEMAGDYVVLLWGLFDDELHAEFDGERFGPHYPVSGPIPQHRYRAFKRSKADERSARIRSLADQLGLPIAALSGEDVRLEPGSADSTLPIQPFVFEPQESRIAAKLAIAEELAMPLAKLSMDDRAFIDQVLSETLATD
MGSDKIHHHHHHMLGTLKKLRAHLDEAQQVQYQLVVGEELLPLNPLIGQPLTLTHTGNIFCCNCGKKTKKSYSQGHCFVCMQKLASCDMCIMKPETCHFDQGTCREPEWAQSHCFVPHYVYLSNTSGIKVGITRHTQLPSRWIDQGATQGLPIFKVATRQISGLVEVELAKLINDKTHWQAMLKGHADDIDLQAKAAELIPHIEAKLHEIGMQKGNYSIERLQENIQTIHYPIEVFPKKITSHNFDKEAVVSGILQGIKGQYLLFDTGVINIRKFTAYEVSVTLTG
MGSDKIHHHHHHMLKEFKEQRLKEIQELRSMGIEPYPYKFEKELTAREIREKYDYLQAGEVLESEKLSFAGRVMSIRHHGKTAFFHMKDDTGRIQAYIKADSVGKEKMDLFKRHVKIGDFVGVRGFPFKSKTGELTIYVQEYTLLSKALRPLPEKWHGIKDKEIIYRQRYLELIVNDEAIERFKKRFKAVRVIREFLNSRGFIEVETPILHYVTGGAEARPFVTHLNVFDIDMYLRIAPELYLKRLIVGGFEKIYEIGKNFRNEGISYKHSPEFTSIEIYQAYADYNDMMDLTEELIVEVVKRTCGTLKISYQGKEIDFTPPWKRVRMRDFLKEKLGVDILEDPDEVLLKKLEEHGVELEIKNRAHLIDKLRDLVEEELVNPTFIIDHPVVISPLAKRHREDPRLTERFELIIFGREIANAFSELNDPVDQYQRFLEQAKMREEGDEEAHMMDLDFVRALEYGMPPTGGLGIGLDRLFMFITDSPTIRDVIPFPIVKPKKFEEEEAEFEGGFEE
MGSDKIHHHHHHMLKENRSLDRGIEILETLAREGAMSLADLHRATGLPKSTLRRLLQTLIARKIVRRSLADKLYRTLVVFPDISGEVMPKGMLHISEAAIPRALALTKEIGWPSDIHIRETRAMRIIDNTRHASTFHVERGQINQRVSHFGSATGLACLAEMKDAEIATIYEAFKPDLQWGPVRFGLDLAGLMARIEQVRQVGYAERLSAPMSDPDWDTDLRAIAVAIKARGRVVGGLSVLWLRPYKPVEEFARLHLEALQTAAAEINATLDAVWEDAAT
